Values quoted from earlier work in paper PMC12153800.

Biological target: FZD10 (Homo sapiens) (UniProt Q9ULW2)
Experiment: NanoBiT/BRET

Sequence of FZD10 (Homo sapiens) (Q9ULW2 21-581): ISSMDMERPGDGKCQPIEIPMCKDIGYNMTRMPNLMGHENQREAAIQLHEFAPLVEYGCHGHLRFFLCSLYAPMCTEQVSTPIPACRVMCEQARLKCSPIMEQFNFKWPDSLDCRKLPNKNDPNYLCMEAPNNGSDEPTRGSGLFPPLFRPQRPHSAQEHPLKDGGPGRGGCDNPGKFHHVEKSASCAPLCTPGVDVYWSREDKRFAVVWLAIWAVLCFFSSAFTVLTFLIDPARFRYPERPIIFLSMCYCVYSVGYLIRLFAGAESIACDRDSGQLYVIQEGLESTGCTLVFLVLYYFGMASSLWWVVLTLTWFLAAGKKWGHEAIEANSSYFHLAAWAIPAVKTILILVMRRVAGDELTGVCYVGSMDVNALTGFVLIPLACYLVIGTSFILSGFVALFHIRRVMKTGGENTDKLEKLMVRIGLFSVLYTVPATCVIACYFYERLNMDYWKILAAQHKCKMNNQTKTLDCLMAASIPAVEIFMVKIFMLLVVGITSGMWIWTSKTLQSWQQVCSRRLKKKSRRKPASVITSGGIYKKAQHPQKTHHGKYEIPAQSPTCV
Sequence of Wnt3a (P56704 19-352): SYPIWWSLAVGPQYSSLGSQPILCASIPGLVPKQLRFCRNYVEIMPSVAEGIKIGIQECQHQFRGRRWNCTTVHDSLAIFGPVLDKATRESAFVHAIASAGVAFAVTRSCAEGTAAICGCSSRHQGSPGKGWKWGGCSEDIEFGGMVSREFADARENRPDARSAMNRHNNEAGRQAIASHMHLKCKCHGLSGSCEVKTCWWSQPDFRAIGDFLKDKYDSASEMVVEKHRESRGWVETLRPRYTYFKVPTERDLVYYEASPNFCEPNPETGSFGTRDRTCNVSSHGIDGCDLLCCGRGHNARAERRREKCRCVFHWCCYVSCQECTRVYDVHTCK

Kd: 4.3 nM
Substance: Wnt3a (from UniProt P56704)
